From the RNAGym collection of RNA variant scans (doi:10.1093/molbev/msab373) come the findings set out here.

Sequences and labels used below:
B1: Azoarcus group I ribozyme (parent)
chain: GUGCCUUGCGCCGGGAAACCACGCAAGGGAUGGUGUCAAAUUCGGCGAAACCUAAGCGCCCGCCCGGGCGUAUGGCAACGCCGAGCCAAGCUUCGGCGCCUGCGCCGAUGAAGGUGUAGAGACUAGACGGCACCCACCUAAGGCAAACGCUAUGGUGAAGGCAUAGUCCAGGGAGUGGCGAAAGUCACACAAACCGG

Variants of B1 are the subject of this data set. Description: reverse-splicing fitness (ratio to wild type); higher = more active; in vitro selection; Mg2+ level not given. An outline of the steps: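 An in vitro group I ribozyme library with randomized positions was T7-transcribed and gel-purified. In triplicate, 10 pmol RNA in EPPS pH 7.5 was reacted with 50 pmoles of a 30-nt RNA substrate for 1 h at 37 °C across several added MgCl2 levels (1–48 mM), then stopped with EDTA. Products were reverse transcribed from a substrate-complementary primer, PCR-amplified and sequenced (HiSeq 4000). Fitness is a variant's read proportion after selection over that before, normalised to wild type.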
With GUGCCUUGCGCCGGGAAACCACGCAAGGGAUGGUGUCAAAUUCGGCGAAACCUAAGCGCCCGCCCGGGCGUAUGGCAACGCAGAGCCAAGCUUCGGCGCCUGCGCCGAUGCAGGUGUAGCGACUAGACGGCACCCACCUAAGGCCAACGUUAUGGUGAAGGCAUAGUCCAGGGAGAGGCGAAAGUCACACAAACCGG, the reverse-splicing fitness stood at 0.00941.

Turning to GUGCCUUGCGCCGGGAAACCACGCAAGGGAUGGUGUCAAAUUCGGCGAAACCUAAGCGCCCGCCCGGGCGUAUGGCAACGCAGAGCCAAGCUUCGGCGCCUGCGCCGAUGCAGGUGUAGCGACUAGACGGCACCCACCUAAGGCCAACGUUAUGGUGAAGGCAUAGUCCAGGGAGGGGCGAAAGUCACACAAACCGG, the reverse-splicing fitness amounted to 0.00571. As to GUGCCUUGCGCCGGGAAACCACGCAAGGGAUGGUGUCAAAUUCGGCGAAACCUAAGCGCCCGCCCGGGCGUAUGGCAACGCAGAGCCAAGCUUCGGCGCCUGCGCCGAUGCAGGUGUAGCGACUAGACGGCACCCACCUAAGGCCAACGUUAUGGUGAAGGCAUAGUCCAGGGAGCGGCGAAAGUCACACAAACCGG, the reverse-splicing fitness was 0.0125. With GUGCCUUGCGCCGGGAAACCACGCAAGGGAUGGUGUCAAAUUCGGCGAAACCUAAGCGCCCGCCCGGGCGUAUGGCAACGCAGAGCCAAGCUUCGGCGCCUGCGCCGAUGCAGGUGUAGCGACUAGACGGCACCCACCUAAGGCCAACGUUAUGGUGAAGGCAUAGUCCAGGGAGUGGCGAAAGUCACACAAACCGG, the reverse-splicing fitness was determined as 0.0124. Regarding GUGCCUUGCGCCGGGAAACCACGCAAGGGAUGGUGUCAAAUUCGGCGAAACCUAAGCGCCCGCCCGGGCGUAUGGCAACGCAGAGCCAAGCUUCGGCGCCUGCGCCGAUGCAGGUGUAGCGACUAGACGGCACCCACCUAAGGCCAACGUUAUGGUGAAGGCAUAGUCUAGGGAGCGGCGAAAGUCACACAAACCGG, the reverse-splicing fitness came out at 0.0105. The figure for GUGCCUUGCGCCGGGAAACCACGCAAGGGAUGGUGUCAAAUUCGGCGAAACCUAAGCGCCCGCCCGGGCGUAUGGCAACGCAGAGCCAAGCUUCGGCGCCUGCGCCGAUGCAGGUGUAGCGACUAGACGGCACCCACCUAAGGCCAACGUUAUGGUGAAGGCAUAGUCUAGGGAGAGGCGAAAGUCACACAAACCGG is 0.0135; for GUGCCUUGCGCCGGGAAACCACGCAAGGGAUGGUGUCAAAUUCGGCGAAACCUAAGCGCCCGCCCGGGCGUAUGGCAACGCAGAGCCAAGCUUCGGCGCCUGCGCCGAUGCAGGUGUAGCGACUAGACGGCACCCACCUAAGGCCAACGUUAUGGUGAAGGCAUAGUCUAGGGAGGGGCGAAAGUCACACAAACCGG it is 0.00738; for GUGCCUUGCGCCGGGAAACCACGCAAGGGAUGGUGUCAAAUUCGGCGAAACCUAAGCGCCCGCCCGGGCGUAUGGCAACGCAGAGCCAAGCUUCGGCGCCUGCGCCGAUGCAGGUGUAGCGACUAGACGGCACCCACCUAAGGCCAACGUUAUGGUGAAGGCAUAGUCGAGGGAGAGGCGAAAGUCACACAAACCGG it is 0.0269. The figure for GUGCCUUGCGCCGGGAAACCACGCAAGGGAUGGUGUCAAAUUCGGCGAAACCUAAGCGCCCGCCCGGGCGUAUGGCAACGCAGAGCCAAGCUUCGGCGCCUGCGCCGAUGCAGGUGUAGCGACUAGACGGCACCCACCUAAGGCCAACGUUAUGGUGAAGGCAUAGUCGAGGGAGCGGCGAAAGUCACACAAACCGG is 0.0178; for GUGCCUUGCGCCGGGAAACCACGCAAGGGAUGGUGUCAAAUUCGGCGAAACCUAAGCGCCCGCCCGGGCGUAUGGCAACGCAGAGCCAAGCUUCGGCGCCUGCGCCGAUGCAGGUGUAGCGACUAGACGGCACCCACCUAAGGCCAACGUUAUGGUGAAGGCAUAGUCGAGGGAGGGGCGAAAGUCACACAAACCGG it is 0.00659. Turning to GUGCCUUGCGCCGGGAAACCACGCAAGGGAUGGUGUCAAAUUCGGCGAAACCUAAGCGCCCGCCCGGGCGUAUGGCAACGCAGAGCCAAGCUUCGGCGCCUGCGCCGAUGCAGGUGUAGCGACUAGACGGCACCCACCUAAGGCCAACGGUAUGGUGAAGGCAUAGUCCAGGGAGGGGCGAAAGUCACACAAACCGG, the reverse-splicing fitness worked out at 0.0029.

Take GUGCCUUGCGCCGGGAAACCACGCAAGGGAUGGUGUCAAAUUCGGCGAAACCUAAGCGCCCGCCCGGGCGUAUGGCAACGCAGAGCCAAGCUUCGGCGCCUGCGCCGAUGCAGGUGUAGCGACUAGACGGCACCCACCUAAGGCCAACGGUAUGGUGAAGGCAUAGUCCAGGGAGAGGCGAAAGUCACACAAACCGG: the reverse-splicing fitness came to 0.00409. The figure for GUGCCUUGCGCCGGGAAACCACGCAAGGGAUGGUGUCAAAUUCGGCGAAACCUAAGCGCCCGCCCGGGCGUAUGGCAACGCAGAGCCAAGCUUCGGCGCCUGCGCCGAUGCAGGUGUAGCGACUAGACGGCACCCACCUAAGGCCAACGGUAUGGUGAAGGCAUAGUCCAGGGAGCGGCGAAAGUCACACAAACCGG is 0.00754. For GUGCCUUGCGCCGGGAAACCACGCAAGGGAUGGUGUCAAAUUCGGCGAAACCUAAGCGCCCGCCCGGGCGUAUGGCAACGCAGAGCCAAGCUUCGGCGCCUGCGCCGAUGCAGGUGUAGCGACUAGACGGCACCCACCUAAGGCCAACGCUAUGGUGAAGGCAUAGUCAAGGGAGAGGCGAAAGUCACACAAACCGG, the reverse-splicing fitness is 0.0158.

As to GUGCCUUGCGCCGGGAAACCACGCAAGGGAUGGUGUCAAAUUCGGCGAAACCUAAGCGCCCGCCCGGGCGUAUGGCAACGCAGAGCCAAGCUUCGGCGCCUGCGCCGAUGCAGGUGUAGCGACUAGACGGCACCCACCUAAGGCCAACGCUAUGGUGAAGGCAUAGUCAAGGGAGGGGCGAAAGUCACACAAACCGG, the reverse-splicing fitness was 0.00646. For the variant GUGCCUUGCGCCGGGAAACCACGCAAGGGAUGGUGUCAAAUUCGGCGAAACCUAAGCGCCCGCCCGGGCGUAUGGCAACGCAGAGCCAAGCUUCGGCGCCUGCGCCGAUGCAGGUGUAGCGACUAGACGGCACCCACCUAAGGCCAACGCUAUGGUGAAGGCAUAGUCAAGGGAGCGGCGAAAGUCACACAAACCGG, the reverse-splicing fitness turned out to be 0.00859. In the case of GUGCCUUGCGCCGGGAAACCACGCAAGGGAUGGUGUCAAAUUCGGCGAAACCUAAGCGCCCGCCCGGGCGUAUGGCAACGCAGAGCCAAGCUUCGGCGCCUGCGCCGAUGCAGGUGUAGCGACUAGACGGCACCCACCUAAGGCCAACGGUAUGGUGAAGGCAUAGUCUAGGGAGCGGCGAAAGUCACACAAACCGG it was 0.0112.

As to GUGCCUUGCGCCGGGAAACCACGCAAGGGAUGGUGUCAAAUUCGGCGAAACCUAAGCGCCCGCCCGGGCGUAUGGCAACGCAGAGCCAAGCUUCGGCGCCUGCGCCGAUGCAGGUGUAGCGACUAGACGGCACCCACCUAAGGCCAACGGUAUGGUGAAGGCAUAGUCUAGGGAGAGGCGAAAGUCACACAAACCGG, the reverse-splicing fitness amounted to 0.00758. Turning to GUGCCUUGCGCCGGGAAACCACGCAAGGGAUGGUGUCAAAUUCGGCGAAACCUAAGCGCCCGCCCGGGCGUAUGGCAACGCAGAGCCAAGCUUCGGCGCCUGCGCCGAUGCAGGUGUAGCGACUAGACGGCACCCACCUAAGGCCAACGGUAUGGUGAAGGCAUAGUCUAGGGAGGGGCGAAAGUCACACAAACCGG, the reverse-splicing fitness was found to be 0.00564.

Regarding GUGCCUUGCGCCGGGAAACCACGCAAGGGAUGGUGUCAAAUUCGGCGAAACCUAAGCGCCCGCCCGGGCGUAUGGCAACGCAGAGCCAAGCUUCGGCGCCUGCGCCGAUGCAGGUGUAGCGACUAGACGGCACCCACCUAAGGCCAACGCUAUGGUGAAGGCAUAGUCGAGGGAGGGGCGAAAGUCACACAAACCGG, the reverse-splicing fitness stood at 0.0074.

With GUGCCUUGCGCCGGGAAACCACGCAAGGGAUGGUGUCAAAUUCGGCGAAACCUAAGCGCCCGCCCGGGCGUAUGGCAACGCAGAGCCAAGCUUCGGCGCCUGCGCCGAUGCAGGUGUAGCGACUAGACGGCACCCACCUAAGGCCAACGCUAUGGUGAAGGCAUAGUCGAGGGAGCGGCGAAAGUCACACAAACCGG, the reverse-splicing fitness turned out to be 0.0213. The figure for GUGCCUUGCGCCGGGAAACCACGCAAGGGAUGGUGUCAAAUUCGGCGAAACCUAAGCGCCCGCCCGGGCGUAUGGCAACGCAGAGCCAAGCUUCGGCGCCUGCGCCGAUGCAGGUGUAGCGACUAGACGGCACCCACCUAAGGCCAACGCUAUGGUGAAGGCAUAGUCGAGGGAGAGGCGAAAGUCACACAAACCGG is 0.0258; for GUGCCUUGCGCCGGGAAACCACGCAAGGGAUGGUGUCAAAUUCGGCGAAACCUAAGCGCCCGCCCGGGCGUAUGGCAACGCAGAGCCAAGCUUCGGCGCCUGCGCCGAUGCAGGUGUAGCGACUAGACGGCACCCACCUAAGGCCAACGUUAUGGUGAAGGCAUAGUCAAGGGAGCGGCGAAAGUCACACAAACCGG it is 0.0112. For GUGCCUUGCGCCGGGAAACCACGCAAGGGAUGGUGUCAAAUUCGGCGAAACCUAAGCGCCCGCCCGGGCGUAUGGCAACGCAGAGCCAAGCUUCGGCGCCUGCGCCGAUGCAGGUGUAGCGACUAGACGGCACCCACCUAAGGCCAACGUUAUGGUGAAGGCAUAGUCAAGGGAGGGGCGAAAGUCACACAAACCGG, the reverse-splicing fitness amounted to 0.00751.

As for GUGCCUUGCGCCGGGAAACCACGCAAGGGAUGGUGUCAAAUUCGGCGAAACCUAAGCGCCCGCCCGGGCGUAUGGCAACGCAGAGCCAAGCUUCGGCGCCUGCGCCGAUGCAGGUGUAGCGACUAGACGGCACCCACCUAAGGCCAACGUUAUGGUGAAGGCAUAGUCAAGGGAGAGGCGAAAGUCACACAAACCGG, the reverse-splicing fitness was 0.0145.

Turning to GUGCCUUGCGCCGGGAAACCACGCAAGGGAUGGUGUCAAAUUCGGCGAAACCUAAGCGCCCGCCCGGGCGUAUGGCAACGCAGAGCCAAGCUUCGGCGCCUGCGCCGAUGCAGGUGUAGCGACUAGACGGCACCCACCUAAGGCCAACGCUAUGGUGAAGGCAUAGUCGAGGGAGUGGCGAAAGUCACACAAACCGG, the reverse-splicing fitness came out at 0.00972.

On to GUGCCUUGCGCCGGGAAACCACGCAAGGGAUGGUGUCAAAUUCGGCGAAACCUAAGCGCCCGCCCGGGCGUAUGGCAACGCAGAGCCAAGCUUCGGCGCCUGCGCCGAUGCAGGUGUAGCGACUAGACGGCACCCACCUAAGGCCAACGCUAUGGUGAAGGCAUAGUCAAGGGAGUGGCGAAAGUCACACAAACCGG, for which the reverse-splicing fitness was found to be 0.00691. Consider GUGCCUUGCGCCGGGAAACCACGCAAGGGAUGGUGUCAAAUUCGGCGAAACCUAAGCGCCCGCCCGGGCGUAUGGCAACGCAGAGCCAAGCUUCGGCGCCUGCGCCGAUGCAGGUGUAGCGACUAGACGGCACCCACCUAAGGCCAACGUUAUGGUGAAGGCAUAGUCGAGGGAGUGGCGAAAGUCACACAAACCGG, for which the reverse-splicing fitness came to 0.00741. Take GUGCCUUGCGCCGGGAAACCACGCAAGGGAUGGUGUCAAAUUCGGCGAAACCUAAGCGCCCGCCCGGGCGUAUGGCAACGCAGAGCCAAGCUUCGGCGCCUGCGCCGAUGCAGGUGUAGCGACUAGACGGCACCCACCUAAGGCCAACGUUAUGGUGAAGGCAUAGUCAAGGGAGUGGCGAAAGUCACACAAACCGG: the reverse-splicing fitness turned out to be 0.0105. In the case of GUGCCUUGCGCCGGGAAACCACGCAAGGGAUGGUGUCAAAUUCGGCGAAACCUAAGCGCCCGCCCGGGCGUAUGGCAACGCAGAGCCAAGCUUCGGCGCCUGCGCCGAUGCAGGUGUAGCGACUAGACGGCACCCACCUAAGGCCAACGUUAUGGUGAAGGCAUAGUCUAGGGAGUGGCGAAAGUCACACAAACCGG it was 0.0108.
